According to doi:10.1101/2025.09.11.675134, “Biodistribution-Driven Discovery Identifies a Glycosidase-Cleavable Linker to Reprogram Radiotheranostics” (bioRxiv, 2025):
Read-outs that look alike come from different tables or passages of the source.

Legend:
[1] = Ex vivo biodistribution of 111In-labeled variants in AR42J xenograft mice; design: species or system athymic nude mice; conditions: athymic nude, mouse, iv, 1 ug, total radioactivity, 1 h post-injection; for tissue uptake at 1 h: in vivo, AR42J tumor-bearing mice
Procedure: For studies involving three variants (DOTA -TATE, DOTA-MVK(ε)-TATE, and DOTA-β-Gal-TATE), AR42J cells (5 × 10^6 cells per mouse) were subcutaneously inoculated into the right shoulder of the mice. Tumors were allowed to grow for 3 weeks, reaching a volume of 100 –200 mm³ before being used in subsequent experiments. For biodistribution or PET imaging studies, mice bearing subcutaneous AR42J tumors were administered 1.4 – 1.8 MBq (1 μg) of 111In-labeled DOTA-TATE variants or 2.7 – 4.9 MBq (1 μg) of 86Y-labeled DOTA-TATE variants via tail vein injection. Biodistribution studies with 111In-labeled DOTA -TATE variants were performed 1 hour post -injection (n = 3 per cohort), while studies with 86Y-labeled DOTA-TATE variants were conducted at 1, 4, and 24 hours post -injection (n = 3 per cohort). Mice were euthanized by CO2 asphyxiation, and 10 tissues, including tumors, were collected. All samples were weighed and counted on a gamma counter (2480 Wizard 3, Perkin Elmer Inc., Waltham, MA, USA). Results are presented as percentage of injected activity per gram (%IA/g) and mean values ± standard deviations. […]

[2] = Ex vivo biodistribution screen of 111In-labeled DOTA-TATE derivatives in normal mice; design: species or system athymic nude mice; conditions: 2 h post-injection; for tissue uptake at 2 h: athymic nude, mouse, in vivo, iv, 1 ug per mouse, total radioactivity, normal athymic nude mice, mean
Procedure, shortened: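 DOTA-TATE variants labelled with 111In in NH4OAc pH 5.2 at 90 °C for 30 min (radiochemical yield >95%, unpurified). Healthy athymic nude mice given 1.4 – 1.8 MBq (1 μg) i.v. in PBS; nine organs assessed ex vivo at 2 hours post-injection, n = 2 – 4.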

## C[C@@H](O)[C@H](NC(=O)[C@@H]1CSSC[C@H](NC(=O)[C@@H](Cc2ccccc2)NC(=O)CCCC(=O)Nc2cc(COC(=O)N(C)CCNC(=O)CN3CCN(CC(=O)O)CCN(CC(=O)O)CCN(CC(=O)O)CC3)ccc2O[C@@H]2O[C@H](CO)[C@H](O)[C@H](O)[C@H]2O)C(=O)N[C@@H](Cc2ccc(O)cc2)C(=O)N[C@H](Cc2c[nH]c3ccccc23)C(=O)N[C@@H](CCCCN)C(=O)N[C@@H]([C@@H](C)O)C(=O)N1)C(=O)O [^111In-DOTA-β-Gal-TATE, metal not drawn]
[1]; i.v. 1 μg (1.4–1.8 MBq), ex vivo gamma counting, mean, n = 3, read-out: Blood uptake
  tissue uptake at 1 h: 0.56 %ID/g
[1]; i.v. 1 μg, ex vivo, mean (± SD), n = 3, read-out: Kidney uptake
  tissue uptake at 1 h: 5.19 ± 0.18 %ID/g
[1]; i.v. 1 μg, ex vivo, mean (± SD), n = 3, read-out: Tumor uptake
  tissue uptake at 1 h: 10.8 ± 1.11 %ID/g
[1]; i.v. 1 μg, ex vivo, mean, n = 3, read-out: Femur uptake
  tissue uptake at 1 h: 0.34 %ID/g
[1]; i.v. 1 μg, ex vivo, mean, n = 3, read-out: Heart uptake
  tissue uptake at 1 h: 0.29 %ID/g
[1]; i.v. 1 μg, ex vivo, mean, n = 3, read-out: Intestine uptake
  tissue uptake at 1 h: 0.79 %ID/g
[1]; i.v. 1 μg, ex vivo, mean, n = 3, read-out: Liver uptake
  tissue uptake at 1 h: 0.45 %ID/g
[1]; i.v. 1 μg, ex vivo, mean, n = 3, read-out: Lung uptake
  tissue uptake at 1 h: 0.92 %ID/g
[1]; i.v. 1 μg, ex vivo, mean, n = 3, read-out: Muscle uptake
  tissue uptake at 1 h: 0.17 %ID/g
[1]; i.v. 1 μg, ex vivo, mean, n = 3, read-out: Spleen uptake
  tissue uptake at 1 h: 0.21 %ID/g
[1]; AR42J xenografts, ex vivo, read-out: Tumor-to-kidney (T/K) ratio
  tissue to tissue ratio at 1 h: 2.08
[2]; i.v. 1 μg (1.4–1.8 MBq), ex vivo gamma counting, n = 2–4, read-out: Blood uptake
  tissue uptake at 2 h: 0.04 %ID/g
[2]; i.v. 1 μg, ex vivo, n = 2–4, read-out: Femur uptake
  tissue uptake at 2 h: 0.07 %ID/g
[2]; i.v. 1 μg, ex vivo, n = 2–4, read-out: Heart uptake
  tissue uptake at 2 h: 0.03 %ID/g
[2]; i.v. 1 μg, ex vivo, n = 2–4, read-out: Intestine uptake
  tissue uptake at 2 h: 0.49 %ID/g
[2]; i.v. 1 μg, ex vivo, n = 2–4, read-out: Liver uptake
  tissue uptake at 2 h: 0.11 %ID/g
[2]; i.v. 1 μg, ex vivo, n = 2–4, read-out: Lung uptake
  tissue uptake at 2 h: 0.28 %ID/g
[2]; i.v. 1 μg, ex vivo, n = 2–4, read-out: Muscle uptake
  tissue uptake at 2 h: 0.02 %ID/g
[2]; i.v. 1 μg, ex vivo, n = 2–4, read-out: Spleen uptake
  tissue uptake at 2 h: 0.08 %ID/g
[2]; normal mice, 111In-DOTA-TATE set as 100%
  Relative kidney retention, % rel. to DOTA-TATE: 67%
